The target of test [1] is T1, Helicoverpa armigera chitin deacetylase (Helicoverpa armigera).
T1 construct: the tag is not part of the printed entry; also called CDA; target CDA antigen
T1 chain: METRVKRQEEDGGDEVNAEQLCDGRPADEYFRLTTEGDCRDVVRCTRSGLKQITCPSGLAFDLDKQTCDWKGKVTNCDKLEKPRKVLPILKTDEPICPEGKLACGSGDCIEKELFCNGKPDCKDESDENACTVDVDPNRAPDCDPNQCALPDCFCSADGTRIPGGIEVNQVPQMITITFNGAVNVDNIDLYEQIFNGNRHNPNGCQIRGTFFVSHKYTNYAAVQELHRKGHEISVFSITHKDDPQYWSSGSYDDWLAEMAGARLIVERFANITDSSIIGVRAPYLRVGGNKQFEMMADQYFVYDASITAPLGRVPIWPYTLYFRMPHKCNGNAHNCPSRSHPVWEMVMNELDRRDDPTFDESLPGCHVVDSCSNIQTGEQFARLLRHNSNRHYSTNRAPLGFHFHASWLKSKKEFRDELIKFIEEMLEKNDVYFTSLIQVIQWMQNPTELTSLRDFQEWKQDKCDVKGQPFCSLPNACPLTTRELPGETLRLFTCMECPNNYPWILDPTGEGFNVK
As to the kind of experiment: ELISA, plate coated with 10 ug/ml target protein, 2 ug/ml nanobody, anti-VHH-HRP, A450.

For test [2], the target named is T2, Helicoverpa armigera V-ATPase subunit c (Helicoverpa armigera).
T2 construct: also called V-ATPases Subunit C; ATPase V subunit c
T2 chain: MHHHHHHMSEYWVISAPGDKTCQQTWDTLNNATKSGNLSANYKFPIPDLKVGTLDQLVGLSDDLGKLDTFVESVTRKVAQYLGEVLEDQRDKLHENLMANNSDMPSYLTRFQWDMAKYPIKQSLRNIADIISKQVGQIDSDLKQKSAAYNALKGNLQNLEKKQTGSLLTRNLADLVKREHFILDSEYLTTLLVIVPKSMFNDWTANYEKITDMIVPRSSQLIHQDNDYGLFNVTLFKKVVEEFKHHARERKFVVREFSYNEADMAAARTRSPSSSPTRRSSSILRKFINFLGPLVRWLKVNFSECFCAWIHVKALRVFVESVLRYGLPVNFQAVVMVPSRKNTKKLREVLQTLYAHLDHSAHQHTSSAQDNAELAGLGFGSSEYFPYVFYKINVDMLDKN
As to the kind of experiment: ELISA, plate coated with the target antigen.

Test [3] addresses T3, Helicoverpa armigera cytochrome p450 monooxygenase (Helicoverpa armigera, UniProt Q95031 23-504).
T3 construct: the tag is not part of the printed entry; also called target P450 antigen
T3 chain: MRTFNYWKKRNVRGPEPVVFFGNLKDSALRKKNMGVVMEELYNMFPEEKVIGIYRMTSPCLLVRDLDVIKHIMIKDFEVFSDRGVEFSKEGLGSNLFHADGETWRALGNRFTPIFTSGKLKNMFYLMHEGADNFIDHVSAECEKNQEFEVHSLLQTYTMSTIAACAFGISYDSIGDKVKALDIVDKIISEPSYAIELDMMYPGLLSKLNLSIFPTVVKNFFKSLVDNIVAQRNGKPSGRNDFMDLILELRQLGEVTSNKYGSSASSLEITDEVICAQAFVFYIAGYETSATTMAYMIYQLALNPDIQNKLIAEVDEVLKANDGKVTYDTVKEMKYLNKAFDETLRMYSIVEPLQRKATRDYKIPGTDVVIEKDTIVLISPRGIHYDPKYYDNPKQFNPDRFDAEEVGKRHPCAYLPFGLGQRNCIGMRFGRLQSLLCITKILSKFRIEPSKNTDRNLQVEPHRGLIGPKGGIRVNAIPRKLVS
As to the kind of experiment: ELISA, plate coated with 10 ug/ml target protein, 2 ug/ml nanobody, anti-VHH-HRP, A450.

B1: CDA01A (VHH)
VHH: QVQLQESGGGLVQAGGSLRLSCAASGRTFNTYAMGWFRQAPGKEREFVAAMNRDGSTVLYADSVKGRFAISKDNAKNTGYLQMNSLKPEDTAIYYCAANARYSDYTDGQSFVSWGQGTQVTVSS
notes: Llama nanobody, His-tagged, expressed in E. coli SHuffle T7; also called CDA1a; anti-CDA nanobody CDA01A
B1: the binding result in test [1] is on record as “binds”.

B2: CDA07A (VHH)
VHH: QVQLQESGGGLVQAGGSLRLSCVASGRTFGNYGLAWFRQPPGKEREFVAAINNRGGNTYYADSVKGRFTISRDNAANTLYLQMSSLKPEDTAVYYCAADRTSLHSYRYTYWGQGTQVTVSS
notes: Llama nanobody, His-tagged, expressed in E. coli SHuffle T7; also called CDA7a; CDA7A
As for B2, the binding result in test [1] was “binds”.

B3: VAT0101A (VHH)
VHH: QVQLQESGGGLVQAGGSLRLSCAASGSTFSGYIMSWFRQPPGKERELVAAITYVGSTYVEDSVKGRFTISRDNAKNTVSLQMNSLKPEDTAVYYCRAREGEQLDFWGQGTQVTVSS
notes: Llama nanobody, His-tagged, expressed in E. coli SHuffle T7; also called anti-VAT nanobody VAT0101A
Consider B3, for which the binding result in test [2] is “binds”.

B4: CDA05 (VHH)
VHH: QVQLQESGGGLVQPGGSLRLSCTASGRTVSNYGMAWFRQVAGKERAFVAAINNRGDSKYYAESVKGRFTIARDNAKNTVYLQMNVLKPEDTAVYYCAADRRSLVRYEYNYWGQGTQVTVSS
notes: Llama nanobody, His-tagged, expressed in E. coli SHuffle T7; also called CDA5; anti-CDA nanobody CDA05
Consider B4, for which the binding result in test [1] is on record as “binds”.

B5: P45003A (VHH)
VHH: QVQLQESGGGLVQAGDSLRLSCVASKRSFSSHAMGWFRQAPGKAREFVATISWNSGSTFYSDSSRGRFTISRDNGKNTLYLQMNSLKPEDTAVYYCAAASGRGITASDFRYDAWGQGTQVTVSS
notes: Llama nanobody, His-tagged, expressed in E. coli SHuffle T7; also called anti-P450 nanobody P45003A
Take B5: the binding result in test [3] is recorded as “binds”.

B6: P45001A (VHH)
VHH: QVQLQESGGGLVQTGGSLRLSCAASGRTSRSYAMGWFRQAPGKERELVADIAWSDGRIYYSDSVKGRFTISRDNAKNTVYLEIDSLKPGDTAVYYCASRARGTVLYNYWGQGTQVTVSS
notes: Llama nanobody, His-tagged, expressed in E. coli SHuffle T7; also called anti-P450 nanobody P45001A
On to B6, for which, in test [3], the binding result was “binds”.

B7: P45004 (VHH)
VHH: QVQLQESGGGLVQAGGSLRLSCAASGRTFSRINMGWFRQAPGKEREFVAVISWNSIADYADSVKARFTISRDNAKNTVYLQMNSLKPEDTAVYYCAASAPFRSKNPTLYLYWGRGTQVTVSS
notes: Llama nanobody, His-tagged, expressed in E. coli SHuffle T7; also called anti-P450 nanobody P45004
As to B7, the binding result in test [3] is “binds”.

B8: CDA10 (VHH)
VHH: QVQLQESGGGLVQTGESLRLSCAASGRTLSSYTMGWFRQAPGKEREIVAASSWSGGRTYYADSVKGRFTMSRNNAENTVYLQMNSLNPEDTAVYYCAADSSRAPRTYNYWGQGTQVTVSS
notes: Llama nanobody, His-tagged, expressed in E. coli SHuffle T7; also called anti-CDA nanobody CDA10
As for B8, the binding result in test [1] was “binds”.

(Values after patent US20220386594A1 (IBI AG INNOVATIVE BIO INSECTICIDES, published 2022).)
